For one experiment, the target named is human FcγRIIb (human) (UniProt P31994). As to the kind of experiment: compared with fucosylated wild-type human IgG1; MSD per FIGS. 10A-10C.
Experiment [1] concerns the target human FcγRIIa (R131 allele) (human) (UniProt P12318). Described as above.
In experiment [2] the target is human FcγRIIa (H131 allele) (human) (UniProt P12318). The experiment is described as above.
Another experiment addresses human C1q (human) (UniProt P02745). As to the kind of experiment: C1q binding assay (FIG. 15: antibody Fc captured on Octet sensor, human C1q in solution). For orientation: In BLI a coated tip is dipped into the sample, and binding shifts an interference pattern.

Experimental findings from patent US20250296986A1 are described below.

Sequence of human FcγRIIa (R131 allele) (human) (P12318 34-218 H167R limits assumed): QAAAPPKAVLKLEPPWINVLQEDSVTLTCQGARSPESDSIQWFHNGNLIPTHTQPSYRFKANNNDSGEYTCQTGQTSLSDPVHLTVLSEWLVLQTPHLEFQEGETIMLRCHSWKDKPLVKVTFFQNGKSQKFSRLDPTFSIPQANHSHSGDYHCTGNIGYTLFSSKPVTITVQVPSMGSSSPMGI
Sequence of human FcγRIIa (H131 allele) (human) (P12318 34-218 limits assumed): as the sequence (P12318 34-218 H167R limits assumed) above, with R134H counted along it
Sequence of human FcγRIIb (human) (P31994 43-217 limits assumed): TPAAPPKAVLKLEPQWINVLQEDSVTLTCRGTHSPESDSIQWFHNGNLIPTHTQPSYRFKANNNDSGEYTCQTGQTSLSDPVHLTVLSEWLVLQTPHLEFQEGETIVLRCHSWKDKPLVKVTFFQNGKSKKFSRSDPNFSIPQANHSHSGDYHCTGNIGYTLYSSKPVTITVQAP
Sequence of human C1q (human) (P02745 23-245 limits assumed, chain 1 of 3): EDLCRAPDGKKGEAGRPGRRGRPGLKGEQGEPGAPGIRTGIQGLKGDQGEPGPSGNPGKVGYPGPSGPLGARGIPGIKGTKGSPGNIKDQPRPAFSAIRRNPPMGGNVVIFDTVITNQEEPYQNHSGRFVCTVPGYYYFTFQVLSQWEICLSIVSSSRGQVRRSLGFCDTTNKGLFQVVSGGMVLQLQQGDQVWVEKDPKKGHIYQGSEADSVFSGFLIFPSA
Sequence of human C1q (human) (P02746 28-253 limits assumed, chain 2 of 3, further chain): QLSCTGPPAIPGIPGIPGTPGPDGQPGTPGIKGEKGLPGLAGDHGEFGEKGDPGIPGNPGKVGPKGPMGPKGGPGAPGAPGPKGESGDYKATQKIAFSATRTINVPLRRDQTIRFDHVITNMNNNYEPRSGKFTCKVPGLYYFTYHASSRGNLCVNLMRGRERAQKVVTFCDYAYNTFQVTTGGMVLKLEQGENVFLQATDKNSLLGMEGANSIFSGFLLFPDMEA
Sequence of human C1q (human) (P02747 29-245 limits assumed, chain 3 of 3, further chain): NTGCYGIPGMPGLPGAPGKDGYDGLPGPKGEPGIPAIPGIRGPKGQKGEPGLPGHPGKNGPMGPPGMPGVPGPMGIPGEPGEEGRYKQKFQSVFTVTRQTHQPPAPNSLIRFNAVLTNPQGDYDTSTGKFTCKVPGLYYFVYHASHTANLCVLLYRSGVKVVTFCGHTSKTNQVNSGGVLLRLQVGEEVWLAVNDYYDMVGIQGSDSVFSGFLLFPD

As for G236A_R292P (antibody), in the experiment with human FcγRIIb (human), the fold-change in binding vs fucosylated wild-type human IgG1 is under 0.5 fold. In the case of G236A_R292P_Y300L (antibody), the values for the fold-change in binding vs fucosylated wild-type human IgG1 in experiment [1] and in experiment [2] were over 2.7 fold and over 14 fold, respectively. The corresponding values for G236A_Y300L (antibody) are over 4 fold and over 18 fold. Turning to G236S_G420V_G446E_L309T (antibody), the fold-change in binding vs fucosylated wild-type human IgG1 with human FcγRIIb (human) was under 0.5 fold.

For the substance “afucosylated Fc variant antibodies bearing the G236A ("GA") mutation (antibody)”, the C1q binding relative to reference IgG1 antibody bearing M428L and N434S mutations only with human C1q (human) was 0.3 fold (×).
